Data published in paper PMC5820184 (Proteins, 2017).

Key:
Test in all cases: crystal structure
[1] = target: Snake Atadenovirus 1 LH3 protein (snake adenovirus 1)
[2] = target: Sorbitol dehydrogenase (BjSDH) from Bradyrhizobium japonicum (Bradyrhizobium japonicum)
crystal structure = target: the molecule itself

Q: “Snake Atadenovirus 1 LH3 protein (natural protein)” was tested. Which stoichiometry N [1] did it give?
A: The stoichiometry N was 3.

Q: For “Sorbitol dehydrogenase (BjSDH) from Bradyrhizobium japonicum (enzyme)”, which stoichiometry N [2] is on record?
A: The stoichiometry N was 4.

B1: FliD_(78-405), flagellar cap protein from Pseudomonas aeruginosa PAO1 (domain or fragment)
chain: NEDILKASATQSAVAGTYQIQVNSLATSSKIALQAIADPANAKFNSGTLNISVGDTKLPAITVDSSNNTLAGMRDAINQAGKEAGVSATIITDNSGSRLVLSSTKTGDGKDIKVEVSDDGSGGNTSLSQLAFDPATAPKLSDGAAAGYVTKAANGEITVDGLKRSIASNSVSDVIDGVSFDVKAVTEAGKPITLTVSRDDAGVKDNVKKFVEAYNTLTKFINEQTVVTKVGEDKNPVTGALLGDASVRALVNTMRSELIASNENGSVRNLAALGITTTKDGTLEIDEKKLDKAISADFEGVASYFTGDTGLAKRLGDKMKPYTDAQGI
Q: For B1, which “stoichiometry N” value (crystal structure) is on record?
A: The value was 6.
